# Assay results published in the RNAGym collection of RNA variant scans (doi:10.1073/pnas.2313332121).
# B1: TPR t1 (parent)
# chain: GACCAAUCUGCCCUCAGAGCUCGAGAACAUCUUCGGAUGCAGAGGAGGCAGGCUUCGGUGGCGCGAUAGCGCCAACGUCCUCAACCUCCAAUGCAUCCCACCACAUGAUGAUGCCUGAAGAGCCUUGGUUUUUUG
# Variants of: B1
# Assay: polymerase ribozyme fitness, log enrichment relative to wild type (log ratio); higher = more active; in vitro selection for triplet polymerase activity
# Method in brief: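 Streptavidin-bead capture of gel-excised extended constructs, followed by RT-PCR, closed a single triplicate in vitro selection round. That round began by annealing PCR-built, transcribed mutant libraries of each subunit of a heterodimeric triplet polymerase ribozyme with a biotinylated primer, the partner subunit and triplets, then incubating them frozen at −7 °C. After Illumina sequencing of inputs and outputs, genotypes needed ≥10 input reads and ≥1 read per output. Fitness is the base-2 logarithm of genotype enrichment over wild-type enrichment, using inverse-variance-weighted replicate averages.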
row,Variant,polymerase ribozyme fitness (log ratio)
1,GACCAAUCUGCCCUCAGAGCUCGAGAACAUCUUCGGAUGCAGAGGAUACAGGCUUCGGUGGCGCGAUAGCGCCAACGUCCUCAACCUCCAAUGCAUCCCACCACAUGAUGAUGCCUGAAGAGCCUUGGUUUUUUG [G47U G48A],0.823
2,GACCAAUCUGCCCUCAGAGCUCGAGAACAUCUUCGGAUGCAGAGGAUACAGGCUUCGGUGGCCCGAUAGCGCCAACGUCCUCAACCUCCAAUGCAUCCCACCACAUGAUGAUGCCUGAGGAGCCUUGGUCUUUUG [G47U G48A G63C A119G U130C],-1
3,GACCAAUCUGCCCUCAGAGCUCGAGAACAUCUUCGGAUGCAGAGGAUGCAGGCUUCGGUGGCGCGAUAGCGCCAACGUCCUCAACCUCCAAUGCAUCCCACCACAUGAUGAUGCCUGAAUAGCCUUGGUUUUUUG [G47U G120U],-0.0894
4,GACCAAUCUGCCCUCAGAGCUCGAGAACAUCUUCGGAUGCAGAGGAUGCAGGCUUCGGUGGCGCGAUAGCGCCAACGUCCUCAACCUCCAAUGGAUCCCACCACAUGAUGAUGCCUGAAGAGCCUUGGUUUUUUG [G47U C94G],-3.51
5,GACCAAUCUGCCCUCAGAGCUCGAGAACAUCUUCGGAUGCAGAGGAUGCAGGCUUCGGUGGCGCGAUAGCGCCAACGUCCUCAACCUCCAAUGCAUCCCACCAUAUGAUGAUGCCUGAAGAGCCUUGGUUUUUUG [G47U C104U],-1.55
6,GACCAAUCUGCCCUCAGAGCUCGAGAACAUCUUCGGAUGCAGAGGACGCAGGCUUCGGUGGCGCGAUAGCGCCAACGUCCUCAACCUCCAAUGCAUCCCACCACAUGAUGAUGCCUGAAGAGCCGUGGUUUUUUG [G47C U125G],-3.03
7,GACCAAUCUGCCCUCAGAGCUCGAGAACAUCUUCGGAUGCAGAGGAUGCAGGCUUGGGUGGCGCGAUAGCGCCAACGUCCUCAACCUCCAAUGCAUCCCACCACAUGAUGAUGCCUGAAGAGCCUUGGUUUUUUG [G47U C56G],-3.09
8,GACCAAUCUGCCCUCAGAGCUCGAGAACAUCUUCGGAUGCAGAGGAUGCAGGCUUUGGUGGCGCGAUAGCGCCAACGUCCUCAACCUCCAAUGCAUCCCACCACAUGAUGAUGCCUGAAGAGCCUUGGUUUUUUG [G47U C56U],-1.38
9,GACCAAUCUGCCCUCAGAGCUCGAGAACAUCUUCGGAUGCAGAGGAUGCAGGCUUCGGUGGUGCGAUAGCGCCAACGCCCUCAACCUCCAAUGCAUCCCACCACAUGAUGAUGCCUCAAGAGCCUUGGUUUUUUG [G47U C62U U78C G117C],-5.23
10,GACCAAUCUGCCCUCAGAGCUCGAGAACAUCUUCGGAUGCAGAGGAUGCAGGCUUCAGUGGCGCGAUAGCGCCAACGUCCUCAACCUCCAAUGCAUCCCACCACAGGAUGAUGCCUGAAGAGCCUUGGUUUAUUG [G47U G57A U106G U132A],-4.76
11,GACCAAUCUGCCCUCAGAGCUCGAGAACAUCUUCGGAUGCAGAGGAUGCAGGCUUCGGUGGCGUGACAGCGCCAACGUCCUCAACCUCCAAUGCAUCCCACCACAUGAUGAUGCCUGAAGAGCCUUGGUUUUUUG [G47U C64U U67C],-7.12
12,GACCAAUCUGCCCUCAGAGCUCGAGAACAUCUUCGGAUGCAGAGGAUGCAGGCUUCGCUGGCGCGAUAGCGCCAACGUCCUCAACCUCCAAUGCAUCCCACCACAUGAUGAUGCCUGAAGAGCCUUGGUUUUUUG [G47U G58C],-0.433
13,GACCAAUCUGCCCUCAGAGCUCGAGAACAUCUUCGGAUGCAGAGGAUGCAGGCUUCGGUGGCGCGAUAGCGCCAACGUCCUCAACCUCCAAUGCAUCCCACCACGUGAUGAUGCCUGAAGAGCCUUGGUUUUUUG [G47U A105G],-3.69
14,GACCAAUCUGCCCUCAGAGCUCGAGAACAUCUUCGGAUGCAGAGGAUUCAGGCUUCGGUGGCUCGAUAGCGCCAACGUCCUCAACCUCCAAUGCAUCCCACCACAUGAUGGUGCCUGAAGAGCCUUGGUUUUUUG [G47U G48U G63U A111G],-4.04
15,GACCAAUCUGCCCUCAGAGCUCGAGAACAUCUUCGGAUGCAGAGGAUGCAGGCUUCGGUGGCGCGAUAGCACCAACGUCCUCAACCUCCAAUGCAUCCCACCACAUGAUGACGCCUGAAGAGCCUUGGUUUUUUG [G47U G71A U112C],-0.298
16,GACCAAUCUGCCCUCAGAGCUCGAGAACAUCUUCGGAUGCAGAGGAUUCAGGCUUAGGUGGCGCGAUAGCGCAAACGUCCUCAACCUCCAAUGCAUCCCACCACAUGAUGAUGCCUGGAGAGCCUUGGUUUUUUG [G47U G48U C56A C73A A118G],-3.88
17,GACCAAUCUGCCCUCAGAGCUCGAGAACAUCUUCGGAUGCAGAGGAUGCAGGCUUCGGUGGCGCGAUAGUGCCAACGUCCUCAACCUCCAAUGCAUCCCACCACAUGAUGAUGCCUGAAGAGCCUUGGUUUUUUG [G47U C70U],-1.87
18,GACCAAUCUGCCCUCAGAGCUCGAGAACAUCUUCGGAUGCAGAGGAUGCAGGCUUCGGUGGCGCGAUAGCGCCAACGUCCUCAACCUCCAAUGCAUCCCACCACAUGAUGAUGCCUGAAGAGCCUUCGUCUUUUG [G47U G127C U130C],-2.06
19,GACCAAUCUGCCCUCAGAGCUCGAGAACAUCUUCGGAUGCAGAGGAUGCAGGGUUGGGUGGCGCGAUAGCGCCAACGUCCUCAACCUCCAAUGCAUCCCACCACAUGAUGAUGCCUGAAGAGCCUUGGUUUUUUG [G47U C53G C56G],-2.42
20,GACCAAUCUGCCCUCAGAGCUCGAGAACAUCUUCGGAUGCAGAGGAUGCAGGCUUCGGUGGCGCGAUAGCGACAAAGUAGUCAACCUCCAAUGGAUCCCCCCACAUGAUGAUGCCGGAAGAGCUUUGGAUUUUUG [G47U C72A C76A C79A C80G C94G A100C U116G C124U U129A],-7.94
21,GACCAAUCUGCCCUCAGAGCUCGAGAACAUCUUCGGAUGCAGAGGAUGCAGGCUUCGGUGGCGCGAUAGCGCCAACGUCCUCAACCUCCAAUGCAUCCCACCACAUGAUGAUGCCUGAAGCGACUUGAUUUUUUG [G47U A121C C123A G128A],-2.3

row,Variant,polymerase ribozyme fitness (log ratio)
1,GACCAAUCUGCCCUCAGAGCUCGAGAACAUCUUCGGAUGCAGAGGAUGCAGGCUUUGGUGGCGCGAUAGCGCCAACGUCCUCAACCUCCAAUGCAUCCCACCACAUGAUGAUUCCUGAAGAGCCUUGGUUUUUUG [G47U C56U G113U],-4.43
2,GACCAAUCUGCCCUCAGAGCUCGAGAACAUCUUCGGAUGCAGAGGAUGCAGGCUUCGGUGGCACGAUAGCGCCAACGUCCUCAACCUCCAAUGCAUCCCACCACAUGAUGAUGCCAGAAGAGCCUUGGUUUUUUG [G47U G63A U116A],-4.47
3,GACCAAUCUGCCCUCAGAGCUCGAGAACAUCUUCGGAUGCAGAGGAUGCAGGCUUCGGUGGCGCGAUAGCGUCAACGUCCUCAACCCCCAAUGCAUCGCACCACAUGAUGAAGCCUGAAGAGCCUUGGUUUUUUG [G47U C72U U87C C98G U112A],-7.3
4,GACCAAUCUGCCCUCAGAGCUCGAGAACAUCUUCGGAUGCAGAGGAUGCAGGCUUCGGUGGCGCGAUAGCGCAAACGCCCUCAACCUUCAAUGCGUCCCACCACAUGAUGAUGCCUGAAGAGCCUUGGUUUUUUG [G47U C73A U78C C88U A95G],-4.73
5,GACCAAUCUGCCCUCAGAGCUCGAGAACAUCUUCGGAUGCAGAGGAUGCAGGUUUCGGUGGCGCGAUAGCGCCAACGUCCUCAACCUCCAAUGCAUCCCACCACAUGAUGGUGCCUGAAGAGCCUUGGUUUUUUG [G47U C53U A111G],-1.54
6,GACCAAUCUGCCCUCAGAGCUCGAGAACAUCUUCGGAUGCAGAGGAUGCAGGCUUCGGUGGCGCGAUAGCGCCAACGUCCUCAACCUCCAAUGUAUCCCACCACAGGAUGAUGCCUUAAAAGCCUUGGUUUUUUG [G47U C94U U106G G117U G120A],-5.71
7,GACCAAUCUGCCCUCAGAGCUCGAGAACAUCUUCGGAUGCAGAGGAUGCAGGCUUCAGUGGCGCGAUAGCGCAAACGUCCUCAAGCUCCAAUGCAUCCCACCACAAGAUGAUGCCUGAAGAGCCUUGGUUUUAUG [G47U G57A C73A C85G U106A U133A],-5.19
8,GACCAAUCUGCCCUCAGAGCUCGAGAACAUCUUCGGAUGCAGAGGAUGCAAGCUUCGGUGGCGCGAUAGCGCCAACGUCCUCAACCUCCAAUGCAUCCCACCACAUGAUGAUGCCUGAAGGGCCUUGUUUUUUUG [G47U G51A A121G G128U],-3.97
9,GACCAAUCUGCCCUCAGAGCUCGAGAACAUCUUCGGAUGCAGAGGAUGCAGGCUUCUGUGGCGCGAUAGCGCCAACGUCCUCAACCUCCAAUUCAUCCCACCACAUGAUGAUGCCUGAAGAGCCUUGGUUUUUUG [G47U G57U G93U],-3.51
10,GACCAAUCUGCCCUCAGAGCUCGAGAACAUCUUCGGAUGCAGAGGAUGCAGACUUCGGUGGCGCGAUAGCGCCAACGUCCUCAACCUCCAAUGCAUCCCACCACAUGAUGAUGCCUGAAGAGCCUUGGUUUUUUG [G47U G52A],-2.71
11,GACCAAUCUGCCCUCAGAGCUCGAGAACAUCUUCGGAUGCAGAGGAUGCAGGCUUCGUUGGCGCGAUAGCGCCAACGUCCUCAACCUCCAAUGCAUCCCACCACAUGAUGAUGCCUGAAUAGCCUUGGUUUUUUG [G47U G58U G120U],-1.02
12,GACCAAUCUGCCCUCAGAGCUCGAGAACAUCUUCGGAUGCAGAGGAUGCAGGCUUCGGUGGCGCGAUAGCGCCAACGUCCUCAACCUCCAAUGCAUCCCACCAAAUGAUGAUGCCUGAAGAGCCUUGGUUUUGUG [G47U C104A U133G],-4.19
13,GACCAAUCUGCCCUCAGAGCUCGAGAACAUCUUCGGAUGCAGAGGAUGCAGGCUUCGGUGGCGCGAUAGCGCCAACGUCCUCAACCUCUAAUGCAUCCCACCACAUGAUGAUGCCUGAAGAACCUUGGUUUUUUG [G47U C89U G122A],-4.51
14,GACCAAUCUGCCCUCAGAGCUCGAGAACAUCUUCGGAUGCAGAGGAUGCAGGCUUCGGUGGCGCGAUACCGCCAACGUCCUCAACCUCCAAUGCAUCCCACCACAUGAUGAUGCCUGAAGAGCCUUGGUUUUUUG [G47U G69C],-3.62
15,GACCAAUCUGCCCUCAGAGCUCGAGAACAUCUUCGGAUGCAGAGGAUGCAGGCUUCGGUGGCGCGAUAGCGCCAACGUCCUCAACCUCCAAUGCAUCCCACCACAUGAUGAUGCUUGAAGAGCCUUGGUUUUUUG [G47U C115U],-2.5
16,GACCAAUCUGCCCUCAGAGCUCGAGAACAUCUUCGGAUGCAGAGGAUGCAGGCUUCGGUGGCGCGAUAGCGCCAACGUCCUCAACCUCCAAUGCAUCCCACCACAUGAUGAUGGCUGAAGAGCCUUGGUUUUUUG [G47U C114G],-4.11
17,GACCAAUCUGCCCUCAGAGCUCGAGAACAUCUUCGGAUGCAGAGGAUGCAGGCUUCGGUGGCGCGAUAGCGCCAACGUCCUCAACCUCCAAUGCAUCCCAUCACAUGAUGAUGUCUGUAGAGCCUUGGUUUUUUG [G47U C101U C114U A118U],-5.66
18,GACCAAUCUGCCCUCAGAGCUCGAGAACAUCUUCGGAUGCAGAGGAUGCAGGCUUCGGUGGCGCGAUAGCUCCAACGUCCUCAACCUCCAAUGCAUCCCACCACAUGAUGAUGCCUGAUGAGACUUGGUUUUUUG [G47U G71U A119U C123A],-2.79
19,GACCAAUCUGCCCUCAGAGCUCGAGAACAUCUUCGGAUGCAGAGGAUGCAGGCUUGGGUGGCGCGAUAGCGCCAACGUCCUCAACCUCCAAUGCAUCCCACCACAUGAUGAUGCCUGUAGAACCUUGGUUUUUUG [G47U C56G A118U G122A],-2.71
20,GACCAAUCUGCCCUCAGAGCUCGAGAACAUCUUCGGAUGCAGAGGAUGCAGACUUCGGUGGCGCGAUAGCGCCAACGUCCUCCACCUCCAAUGCAUCCCACCACAUGAUGAUGCCUGAAGAGCCUUGGUUUUUUG [G47U G52A A83C],-2.36
21,GACCAAUCUGCCCUCAGAGCUCGAGAACAUCUUCGGAUGCAGAGGAUGCUGGCAUCGGUGGCGCGAUAGCGCCAACGUCCUCAACCUCCAAUGCAUCCCACCACAUGAUGAUGCCUGAAGAGCCUUGGUUUUUUG [G47U A50U U54A],-2.42
